Results reported in the supplement of paper PMC9112550, “Optimization of the antimicrobial peptide Bac7 by deep mutational scanning” (BMC Biology, 2022).

System: Escherichia coli TOP10
Assay: shrunken log2 fold change of peptide-encoding DNA abundance (4.5 h post-induction vs induction); higher = less antimicrobial activity (less host growth inhibition)
Conditions: time post-induction: 4.5 h; library: site-saturation at positions 5, 18, 19, 20
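Note: peptides expressed intracellularly from a pBAD plasmid library in pooled LB shake-flask culture, induced with 0.3% L-arabinose, DNA abundance read by NGS, three biological replicates, DESeq2 with apeglm shrinkage.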

Sequence	shrunken log2 fold change
RRIRSRPPRLPRPRPRPRRGPRP	0.538
RRIRFRPPRLPRPRPRPIGDPRP	-0.033
RRIRHRPPRLPRPRPRPNDCPRP	0.000576
RRIRKRPPRLPRPRPRPTQYPRP	0.0924
RRIRYRPPRLPRPRPRPEQYPRP	-0.0207
RRIRPRPPRLPRPRPRPIKPPRP	-0.0651
RRIRCRPPRLPRPRPRPLNHPRP	0.519
RRIRVRPPRLPRPRPRPHAKPRP	0.0066
RRIRQRPPRLPRPRPRPHHWPRP	-0.0737
RRIRKRPPRLPRPRPRPCRCPRP	0.0976
RRIRQRPPRLPRPRPRPESFPRP	0.0552
RRIRTRPPRLPRPRPRPYHMPRP	-0.293
RRIRKRPPRLPRPRPRPENKPRP	0.528
RRIRFRPPRLPRPRPRPFTQPRP	0.0192
RRIRIRPPRLPRPRPRPNDAPRP	-0.182
RRIRSRPPRLPRPRPRPWQYPRP	0.0433
RRIRIRPPRLPRPRPRPIIQPRP	-0.455
RRIRTRPPRLPRPRPRPRKIPRP	-0.0707
RRIRPRPPRLPRPRPRPGRMPRP	0.318
RRIRERPPRLPRPRPRPRQEPRP	0.315
RRIRVRPPRLPRPRPRPMLVPRP	0.0916
RRIRHRPPRLPRPRPRPTWTPRP	2.15e-05
RRIRCRPPRLPRPRPRPGAVPRP	0.202
RRIRPRPPRLPRPRPRPSRFPRP	0.227
RRIRTRPPRLPRPRPRPSHWPRP	-0.148

Sequence	shrunken log2 fold change
RRIRYRPPRLPRPRPRPFMDPRP	-0.2
RRIRKRPPRLPRPRPRPPFNPRP	0.0386
RRIRPRPPRLPRPRPRPFTTPRP	-0.0187
RRIRTRPPRLPRPRPRPHVWPRP	0.272
RRIRDRPPRLPRPRPRPNNQPRP	-0.513
RRIRNRPPRLPRPRPRPGVHPRP	0.25
RRIRPRPPRLPRPRPRPYSSPRP	-0.282
RRIRYRPPRLPRPRPRPDYGPRP	-0.205
RRIRCRPPRLPRPRPRPTPWPRP	0.49
RRIRKRPPRLPRPRPRPQNGPRP	-0.178
RRIRQRPPRLPRPRPRPRIHPRP	-0.234
RRIRARPPRLPRPRPRPSVYPRP	-0.138
RRIRRRPPRLPRPRPRPCVNPRP	-0.0549
RRIRDRPPRLPRPRPRPGCLPRP	0.589
RRIRHRPPRLPRPRPRPKQCPRP	-0.224
RRIRYRPPRLPRPRPRPHATPRP	-0.191
RRIRPRPPRLPRPRPRPCTTPRP	-0.732
RRIRCRPPRLPRPRPRPAIMPRP	-0.0676
RRIRHRPPRLPRPRPRPNNYPRP	-0.857
RRIRLRPPRLPRPRPRPKYEPRP	-0.0397
RRIRIRPPRLPRPRPRPGSKPRP	-0.0906
RRIRPRPPRLPRPRPRPRSIPRP	-0.149
RRIRQRPPRLPRPRPRPVYVPRP	-0.216
RRIRYRPPRLPRPRPRPQPDPRP	-0.0504
RRIRDRPPRLPRPRPRPEKSPRP	-0.00264

Sequence	shrunken log2 fold change
RRIRHRPPRLPRPRPRPIAWPRP	0.0843
RRIRQRPPRLPRPRPRPSRHPRP	-0.0666
RRIRTRPPRLPRPRPRPKPWPRP	0.363
RRIRERPPRLPRPRPRPNHWPRP	-0.138
RRIRIRPPRLPRPRPRPIANPRP	-0.0104
RRIRDRPPRLPRPRPRPWYCPRP	-0.137
RRIRFRPPRLPRPRPRPHRQPRP	-0.228
RRIRCRPPRLPRPRPRPPNCPRP	0.0348
RRIRKRPPRLPRPRPRPFESPRP	0.0457
RRIRHRPPRLPRPRPRPEGWPRP	0.695
RRIRYRPPRLPRPRPRPQRPPRP	0.376
RRIRARPPRLPRPRPRPRCDPRP	0.324
RRIRERPPRLPRPRPRPCNKPRP	-0.858
RRIRVRPPRLPRPRPRPYKFPRP	-0.475
RRIRERPPRLPRPRPRPMTEPRP	-0.116
RRIRHRPPRLPRPRPRPRDGPRP	0.84
RRIRCRPPRLPRPRPRPLNDPRP	0.0553
RRIRTRPPRLPRPRPRPSDVPRP	-0.83
RRIRERPPRLPRPRPRPCQCPRP	-0.0543
RRIRLRPPRLPRPRPRPRALPRP	2.21
RRIRMRPPRLPRPRPRPLHVPRP	-0.21
RRIRRRPPRLPRPRPRPRMHPRP	0.516
RRIRIRPPRLPRPRPRPRWRPRP	0.267
RRIRERPPRLPRPRPRPMVCPRP	-0.0478
RRIRNRPPRLPRPRPRPRVQPRP	-0.00489

Sequence	shrunken log2 fold change
RRIRMRPPRLPRPRPRPRKPPRP	0.915
RRIRARPPRLPRPRPRPSPFPRP	0.0195
RRIRARPPRLPRPRPRPWMKPRP	-0.172
RRIRSRPPRLPRPRPRPDFQPRP	-0.0122
RRIRARPPRLPRPRPRPSHKPRP	0.0213
RRIRLRPPRLPRPRPRPRAGPRP	0.557
RRIRFRPPRLPRPRPRPPGSPRP	0.238
RRIRQRPPRLPRPRPRPTREPRP	-0.081
RRIRLRPPRLPRPRPRPQQSPRP	-0.047
RRIRKRPPRLPRPRPRPKHVPRP	0.473
RRIRMRPPRLPRPRPRPQQMPRP	-0.0302
RRIRCRPPRLPRPRPRPLLKPRP	-0.185
RRIRNRPPRLPRPRPRPEHTPRP	-0.0129
RRIRKRPPRLPRPRPRPDARPRP	-0.0173
RRIRQRPPRLPRPRPRPELGPRP	0.0387
RRIRVRPPRLPRPRPRPVAAPRP	0.368
RRIRARPPRLPRPRPRPAPQPRP	0.932
RRIRARPPRLPRPRPRPFHFPRP	-0.25
RRIRRRPPRLPRPRPRPAVNPRP	0.125
RRIRCRPPRLPRPRPRPIYVPRP	-0.447
RRIRRRPPRLPRPRPRPFWYPRP	-0.192
RRIRKRPPRLPRPRPRPQIHPRP	0.0287
RRIRERPPRLPRPRPRPRIIPRP	0.0824
RRIRLRPPRLPRPRPRPFMVPRP	-0.606
RRIRFRPPRLPRPRPRPMSPPRP	-0.0304

Sequence	shrunken log2 fold change
RRIRNRPPRLPRPRPRPEKRPRP	-0.0252
RRIRDRPPRLPRPRPRPPWLPRP	0.296
RRIRMRPPRLPRPRPRPCIRPRP	-0.122
RRIRFRPPRLPRPRPRPWKAPRP	0.0062
RRIRFRPPRLPRPRPRPYSDPRP	-0.298
RRIRVRPPRLPRPRPRPRWLPRP	0.211
RRIRERPPRLPRPRPRPSPPPRP	-0.013
RRIRKRPPRLPRPRPRPDWRPRP	0.499
RRIRYRPPRLPRPRPRPNDIPRP	-0.299
RRIRFRPPRLPRPRPRPFKCPRP	-2.13
RRIRIRPPRLPRPRPRPVWHPRP	-0.413
RRIRVRPPRLPRPRPRPFRAPRP	-0.0855
RRIRNRPPRLPRPRPRPEAQPRP	-0.0169
RRIRFRPPRLPRPRPRPVWHPRP	-0.0142
RRIRPRPPRLPRPRPRPMISPRP	-0.098
RRIRMRPPRLPRPRPRPWEMPRP	-0.0802
RRIRRRPPRLPRPRPRPPAQPRP	0.535
RRIRPRPPRLPRPRPRPMKKPRP	-0.0723
RRIRKRPPRLPRPRPRPCDGPRP	0.00408
RRIRCRPPRLPRPRPRPFNFPRP	-0.813
RRIRHRPPRLPRPRPRPNLWPRP	0.173
RRIRMRPPRLPRPRPRPEPIPRP	0.0584
RRIRNRPPRLPRPRPRPNSMPRP	-0.815
RRIRRRPPRLPRPRPRPCMIPRP	-0.108
RRIRMRPPRLPRPRPRPLHEPRP	0.545

Sequence	shrunken log2 fold change
RRIRNRPPRLPRPRPRPMWRPRP	-0.0211
RRIRCRPPRLPRPRPRPSKMPRP	-0.492
RRIRKRPPRLPRPRPRPYMMPRP	-0.103
RRIRGRPPRLPRPRPRPSAKPRP	1.12
RRIRPRPPRLPRPRPRPFHWPRP	0.0105
RRIRWRPPRLPRPRPRPLIIPRP	-0.269
RRIRKRPPRLPRPRPRPAQCPRP	-0.0613
RRIRCRPPRLPRPRPRPGRQPRP	0.285
RRIRMRPPRLPRPRPRPCSKPRP	-0.00101
RRIRERPPRLPRPRPRPDEFPRP	0.0332
RRIRSRPPRLPRPRPRPLLCPRP	-0.039
RRIRPRPPRLPRPRPRPGITPRP	-0.138
RRIRHRPPRLPRPRPRPWFFPRP	-0.379
RRIRLRPPRLPRPRPRPINFPRP	-0.426
RRIRDRPPRLPRPRPRPWDTPRP	-0.029
RRIRVRPPRLPRPRPRPGWCPRP	0.146
RRIRVRPPRLPRPRPRPQRWPRP	0.496
RRIRTRPPRLPRPRPRPQGKPRP	-0.108
RRIRNRPPRLPRPRPRPLSFPRP	-0.387
RRIRKRPPRLPRPRPRPNIVPRP	0.135
RRIRHRPPRLPRPRPRPDRTPRP	0.0869
RRIRNRPPRLPRPRPRPLAQPRP	0.0157
RRIRERPPRLPRPRPRPSDVPRP	-0.182
RRIRDRPPRLPRPRPRPDHHPRP	-0.616
RRIRLRPPRLPRPRPRPGNMPRP	-0.157
